Source: patent US20190134153A1, “IMMUNOMODULATORY EFFECT OF INHALED KINASE INHIBITOR PEPTIDES IN LUNG” (MOERAE MATRIX, INC., priority 2017, published 2019)

Assays:
Assay in all cases: Kinase Profiling Assay
Assay type in all cases: biochemical
Conditions in all cases: 100 μM
[1] = target: T1, NEK11(h) (Homo sapiens, UniProt Q8NG66)
T1 sequence (Q8NG66 1-645): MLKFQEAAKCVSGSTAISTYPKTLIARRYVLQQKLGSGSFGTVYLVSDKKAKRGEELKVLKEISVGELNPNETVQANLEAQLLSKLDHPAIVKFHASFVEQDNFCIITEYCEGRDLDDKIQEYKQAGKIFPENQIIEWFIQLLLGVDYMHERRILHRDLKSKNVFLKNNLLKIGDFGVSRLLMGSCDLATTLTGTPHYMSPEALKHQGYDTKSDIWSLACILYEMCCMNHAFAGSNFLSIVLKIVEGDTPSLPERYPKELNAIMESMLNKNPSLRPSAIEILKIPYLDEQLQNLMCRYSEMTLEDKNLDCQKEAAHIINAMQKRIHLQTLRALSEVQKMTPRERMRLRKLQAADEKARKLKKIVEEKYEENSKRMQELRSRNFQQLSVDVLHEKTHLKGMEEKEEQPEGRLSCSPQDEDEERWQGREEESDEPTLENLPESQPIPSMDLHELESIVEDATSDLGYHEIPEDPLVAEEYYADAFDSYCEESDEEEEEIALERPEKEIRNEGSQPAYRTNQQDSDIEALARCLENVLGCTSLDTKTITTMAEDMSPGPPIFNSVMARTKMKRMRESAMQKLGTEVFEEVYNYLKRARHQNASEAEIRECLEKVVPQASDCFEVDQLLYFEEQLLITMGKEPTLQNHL

[2] = target: T2, PKCε(h) (Homo sapiens, UniProt Q02156)
T2 sequence (Q02156 1-737): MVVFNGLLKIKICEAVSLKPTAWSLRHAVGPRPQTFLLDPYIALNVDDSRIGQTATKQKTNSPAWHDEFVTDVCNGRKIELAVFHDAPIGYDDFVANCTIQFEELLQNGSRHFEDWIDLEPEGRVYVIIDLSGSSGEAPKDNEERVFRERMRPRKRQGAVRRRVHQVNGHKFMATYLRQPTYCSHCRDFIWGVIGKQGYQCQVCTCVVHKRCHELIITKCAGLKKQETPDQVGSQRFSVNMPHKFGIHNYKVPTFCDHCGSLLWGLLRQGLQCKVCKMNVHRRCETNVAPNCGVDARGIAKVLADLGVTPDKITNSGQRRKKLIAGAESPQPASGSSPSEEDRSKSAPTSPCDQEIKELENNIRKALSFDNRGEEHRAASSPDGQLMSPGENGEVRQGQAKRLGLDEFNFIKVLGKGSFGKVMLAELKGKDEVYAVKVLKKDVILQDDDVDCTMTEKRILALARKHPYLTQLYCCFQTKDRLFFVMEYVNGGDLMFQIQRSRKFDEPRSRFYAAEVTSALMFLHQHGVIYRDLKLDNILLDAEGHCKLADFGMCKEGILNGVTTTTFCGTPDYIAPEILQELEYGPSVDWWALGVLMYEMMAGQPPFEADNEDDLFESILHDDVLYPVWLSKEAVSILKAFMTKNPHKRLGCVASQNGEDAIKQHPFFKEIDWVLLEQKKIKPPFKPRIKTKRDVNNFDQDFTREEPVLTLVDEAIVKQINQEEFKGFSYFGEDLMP

[3] = target: T3, TAO2(h) (Homo sapiens, UniProt Q9UL54)
T3 sequence (Q9UL54 1-1235): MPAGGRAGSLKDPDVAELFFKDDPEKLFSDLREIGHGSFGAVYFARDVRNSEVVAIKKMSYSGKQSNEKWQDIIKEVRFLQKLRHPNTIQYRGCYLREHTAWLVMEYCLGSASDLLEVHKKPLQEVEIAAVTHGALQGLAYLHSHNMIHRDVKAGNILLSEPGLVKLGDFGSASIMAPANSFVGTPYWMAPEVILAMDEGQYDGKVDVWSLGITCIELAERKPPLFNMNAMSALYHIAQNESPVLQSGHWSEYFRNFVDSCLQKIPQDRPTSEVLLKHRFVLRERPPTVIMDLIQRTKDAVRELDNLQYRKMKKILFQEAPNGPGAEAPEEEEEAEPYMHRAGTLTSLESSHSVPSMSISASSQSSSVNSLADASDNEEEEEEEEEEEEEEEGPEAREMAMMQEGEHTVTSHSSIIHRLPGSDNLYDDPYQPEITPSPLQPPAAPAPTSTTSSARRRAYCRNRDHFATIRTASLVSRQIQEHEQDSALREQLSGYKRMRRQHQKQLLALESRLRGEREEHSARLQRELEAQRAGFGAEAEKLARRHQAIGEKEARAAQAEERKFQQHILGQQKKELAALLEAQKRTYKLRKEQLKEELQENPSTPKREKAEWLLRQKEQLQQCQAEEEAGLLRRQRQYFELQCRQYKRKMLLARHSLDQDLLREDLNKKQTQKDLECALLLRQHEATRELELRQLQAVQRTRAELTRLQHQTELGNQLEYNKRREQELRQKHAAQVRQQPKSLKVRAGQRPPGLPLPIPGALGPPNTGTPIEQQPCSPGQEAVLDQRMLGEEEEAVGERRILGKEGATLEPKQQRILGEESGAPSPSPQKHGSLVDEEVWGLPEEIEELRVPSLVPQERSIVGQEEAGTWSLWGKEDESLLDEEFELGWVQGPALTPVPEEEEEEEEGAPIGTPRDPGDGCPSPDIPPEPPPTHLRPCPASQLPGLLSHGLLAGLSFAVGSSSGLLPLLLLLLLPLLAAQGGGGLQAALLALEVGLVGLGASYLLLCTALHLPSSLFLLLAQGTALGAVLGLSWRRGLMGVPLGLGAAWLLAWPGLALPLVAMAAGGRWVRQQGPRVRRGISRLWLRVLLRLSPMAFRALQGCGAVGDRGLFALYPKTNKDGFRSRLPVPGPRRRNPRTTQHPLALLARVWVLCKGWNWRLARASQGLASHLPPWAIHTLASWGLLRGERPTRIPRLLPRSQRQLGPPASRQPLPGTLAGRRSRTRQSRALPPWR

[4] = target: Rsk1(h) (Homo sapiens, UniProt Q15418)
Sequence of Rsk1(h) (Q15418 whole entry): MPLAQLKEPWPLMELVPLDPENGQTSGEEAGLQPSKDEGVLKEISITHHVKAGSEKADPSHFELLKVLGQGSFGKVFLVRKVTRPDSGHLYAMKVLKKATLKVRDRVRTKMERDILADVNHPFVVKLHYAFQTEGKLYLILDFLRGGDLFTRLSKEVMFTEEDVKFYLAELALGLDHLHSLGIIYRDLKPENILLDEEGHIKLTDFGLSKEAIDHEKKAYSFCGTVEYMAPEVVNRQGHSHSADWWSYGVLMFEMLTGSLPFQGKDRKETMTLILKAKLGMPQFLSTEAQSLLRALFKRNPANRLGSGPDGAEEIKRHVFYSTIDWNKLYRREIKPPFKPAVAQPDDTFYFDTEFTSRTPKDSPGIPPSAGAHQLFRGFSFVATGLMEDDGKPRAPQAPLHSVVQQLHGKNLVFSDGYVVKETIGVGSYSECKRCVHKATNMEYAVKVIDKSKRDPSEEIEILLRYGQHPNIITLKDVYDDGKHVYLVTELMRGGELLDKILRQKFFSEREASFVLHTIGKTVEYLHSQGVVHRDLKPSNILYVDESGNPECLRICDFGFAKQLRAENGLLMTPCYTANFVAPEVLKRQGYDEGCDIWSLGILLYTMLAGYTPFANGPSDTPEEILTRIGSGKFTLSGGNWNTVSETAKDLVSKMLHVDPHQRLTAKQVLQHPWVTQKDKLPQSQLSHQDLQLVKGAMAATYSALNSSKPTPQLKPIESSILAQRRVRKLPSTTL

YARAAARQARAKALNRQLGVA [MMI-0200]
% activity [1]: 95%
% activity [2]: 98%
% activity [3]: 93%

KAFAKLAARLYRKALARQLGVAA [MMI-0400]
% activity [4]: 54%
% activity [1]: 33%
% activity [2]: 59%
% activity [3]: 74%

HRRIKAWLKKIKALARQLGVAA [MMI-0500]
% activity [4]: 34%
% activity [1]: 2%
% activity [2]: 23%
% activity [3]: 15%

FAKLAARLYRKALARQLGVAA [MMI-0300]
% activity [4]: 46%
% activity [1]: 53%
% activity [2]: 79%
% activity [3]: 70%
